No end group written: not given here. OP = not defined here
Molecular target: monoclonal antibody depY (mouse)
Assay: SPR

Row | Binder | Kd [nM]
1 | LYGLPR-{OP} (reading uncertain; also: printed as LYGLPR-OP) [LYGLPR-OP] | 12
2 | PPYRM-{OP} (reading uncertain; also: printed as PPYRM-OP) [PPYRM-OP] | 360

— PMC6006506
